From paper PMC2756588

Assays:
Experiment in all cases: SPOT array
[1] = molecular target: T1, Myo5, Q04439; settings: median of control spots 471
T1 sequence (Q04439 1072-1160, looked up): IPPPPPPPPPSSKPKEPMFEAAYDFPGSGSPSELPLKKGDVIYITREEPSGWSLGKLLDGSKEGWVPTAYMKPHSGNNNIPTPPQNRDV

[2] = molecular target: Sho1, P40073; settings: median of control spots 1148
[3] = molecular target: T2, Hof1, Q05080; settings: median of control spots 4086
T2 sequence (Q05080 590-669, looked up): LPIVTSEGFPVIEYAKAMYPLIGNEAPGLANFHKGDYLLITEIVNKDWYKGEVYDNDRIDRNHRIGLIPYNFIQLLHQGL

[4] = molecular target: T3, Lsb4, P32793; settings: median of control spots 397
T3 sequence (P32793 402-468, looked up): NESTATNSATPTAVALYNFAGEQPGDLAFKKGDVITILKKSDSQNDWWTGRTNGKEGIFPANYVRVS

[5] = molecular target: T4, Bzz1-1, P38822; settings: median of control spots 4446
T4 sequence (P38822 478-572, looked up): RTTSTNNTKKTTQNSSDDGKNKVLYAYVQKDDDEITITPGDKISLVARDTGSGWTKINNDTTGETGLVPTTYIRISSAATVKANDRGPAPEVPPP

[6] = molecular target: T5, Fus1, P11710; settings: median of control spots 1200
T5 sequence (P11710 432-512, looked up): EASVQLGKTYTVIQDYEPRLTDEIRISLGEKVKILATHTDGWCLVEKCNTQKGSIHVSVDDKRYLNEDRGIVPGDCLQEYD

[7] = molecular target: T6, Cyk3, Q07533; settings: median of control spots 1451
T6 sequence (Q07533 1-83, looked up): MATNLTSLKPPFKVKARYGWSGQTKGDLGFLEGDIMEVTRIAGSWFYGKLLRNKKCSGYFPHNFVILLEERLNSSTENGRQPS

[8] = molecular target: T7, Boi1, P38041; settings: median of control spots 1162
T7 sequence (P38041 1-86, looked up): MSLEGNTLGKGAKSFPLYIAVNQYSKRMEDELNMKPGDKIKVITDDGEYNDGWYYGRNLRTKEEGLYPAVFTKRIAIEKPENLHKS

[9] = molecular target: T8, Pin3, Q06449; settings: median of control spots 2171
T8 sequence (Q06449 53-122, looked up): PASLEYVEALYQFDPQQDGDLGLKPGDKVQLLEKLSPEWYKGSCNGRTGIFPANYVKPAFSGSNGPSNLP

[10] = molecular target: T9, Hse1, P38753; settings: median of control spots 1727
T9 sequence (P38753 208-285, looked up): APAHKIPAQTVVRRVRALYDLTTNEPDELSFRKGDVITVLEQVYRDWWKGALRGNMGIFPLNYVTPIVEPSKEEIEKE

[11] = molecular target: T10, Abp1, P15891; settings: median of control spots 935
T10 sequence (P15891 535-592, looked up): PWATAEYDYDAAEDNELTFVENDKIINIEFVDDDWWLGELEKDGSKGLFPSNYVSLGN

[12] = molecular target: Bem1-1, P29366; settings: median of control spots 4282
[13] = molecular target: T11, Nbp2, Q12163; settings: median of control spots 357
T11 sequence (Q12163 103-180, looked up): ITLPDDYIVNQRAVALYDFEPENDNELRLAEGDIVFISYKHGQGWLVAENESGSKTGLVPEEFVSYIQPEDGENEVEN

[14] = molecular target: T12, Bzz1-2, P38822; settings: median of control spots 4538
T12 sequence (P38822 568-633, looked up): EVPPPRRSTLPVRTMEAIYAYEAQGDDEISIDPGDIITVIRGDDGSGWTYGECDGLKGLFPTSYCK

[15] = molecular target: T13, Cdc25, P04821; settings: median of control spots 969
T13 sequence (P04821 50-136, looked up): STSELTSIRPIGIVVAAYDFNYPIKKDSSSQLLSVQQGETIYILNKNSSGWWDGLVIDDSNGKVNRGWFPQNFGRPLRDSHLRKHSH

[16] = molecular target: Rvs167, P39743; settings: median of control spots 2707
[17] = molecular target: T14, Lsb3, P43603; settings: median of control spots 406
T14 sequence (P43603 385-451, looked up): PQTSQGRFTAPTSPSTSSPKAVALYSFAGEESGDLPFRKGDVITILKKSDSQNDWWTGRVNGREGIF

[18] = molecular target: T15, Sla1-3, P32790; settings: median of control spots 5475
T15 sequence (P32790 344-424, looked up): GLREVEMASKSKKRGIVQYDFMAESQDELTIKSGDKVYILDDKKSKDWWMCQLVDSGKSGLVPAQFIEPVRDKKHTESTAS

[19] = molecular target: T16, Pex13, P80667; settings: median of control spots 1341
T16 sequence (P80667 295-386, looked up): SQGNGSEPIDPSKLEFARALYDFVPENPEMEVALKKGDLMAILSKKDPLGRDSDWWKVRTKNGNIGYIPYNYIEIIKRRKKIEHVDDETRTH

[20] = molecular target: T17, Boi2, P39969; settings: median of control spots 1161
T17 sequence (P39969 32-116, looked up): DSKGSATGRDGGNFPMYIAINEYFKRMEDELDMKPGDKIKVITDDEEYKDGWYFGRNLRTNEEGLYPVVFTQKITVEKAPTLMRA

[21] = molecular target: Myo3, P36006; settings: median of control spots 468
[22] = molecular target: GST; settings: median of control spots 978
[23] = molecular target: Bem1-2, P29366; settings: median of control spots 4347
[24] = molecular target: T18, Bud14, P27637; settings: median of control spots 956
T18 sequence (P27637 247-328, looked up): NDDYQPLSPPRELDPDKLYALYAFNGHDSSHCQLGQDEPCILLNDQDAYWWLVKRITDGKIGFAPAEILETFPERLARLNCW

[25] = molecular target: T19, Bbc1, P47068; settings: median of control spots 796
T19 sequence (P47068 1-78, looked up): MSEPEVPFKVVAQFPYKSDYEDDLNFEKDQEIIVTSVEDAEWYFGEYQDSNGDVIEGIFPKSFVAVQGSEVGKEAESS

[26] = molecular target: T20, Sla1-2, P32790; settings: median of control spots 712
T20 sequence (P32790 60-140, looked up): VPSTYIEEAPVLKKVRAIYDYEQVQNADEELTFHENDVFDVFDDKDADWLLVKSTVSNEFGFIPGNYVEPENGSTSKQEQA

[27] = molecular target: T21, Lsb1, P53281; settings: median of control spots 388
T21 sequence (P53281 45-122, looked up): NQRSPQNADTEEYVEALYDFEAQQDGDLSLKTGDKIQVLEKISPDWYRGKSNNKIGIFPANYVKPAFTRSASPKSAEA

Bem1-2, P29366, sequence (P29366 139-227): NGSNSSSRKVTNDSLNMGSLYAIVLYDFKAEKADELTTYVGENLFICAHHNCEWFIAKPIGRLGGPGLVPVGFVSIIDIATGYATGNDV
Sho1, P40073, sequence (P40073 287-367): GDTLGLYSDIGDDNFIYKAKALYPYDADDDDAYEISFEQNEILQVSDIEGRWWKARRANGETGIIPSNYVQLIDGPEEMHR
Bem1-1, P29366, sequence (P29366 55-141): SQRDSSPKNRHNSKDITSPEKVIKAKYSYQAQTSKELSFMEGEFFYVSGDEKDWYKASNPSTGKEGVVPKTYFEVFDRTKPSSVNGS
Rvs167, P39743, sequence (P39743 419-482): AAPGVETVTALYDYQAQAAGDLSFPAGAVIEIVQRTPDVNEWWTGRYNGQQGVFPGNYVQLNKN

Binder: DLPLPDLPPEPPTEL
- SPOT intensity [1]: 101
- SPOT intensity [2]: 0
- SPOT intensity [3]: 566
- SPOT intensity [4]: 0
- SPOT intensity [5]: 0
- SPOT intensity [6]: 0
- SPOT intensity [7]: 0
- SPOT intensity [8]: 2
- SPOT intensity [9]: 0
- SPOT intensity [10]: 0
- SPOT intensity [11]: 0
- SPOT intensity [12]: 3
- SPOT intensity [13]: 0
- SPOT intensity [14]: 0
- SPOT intensity [15]: 2
- SPOT intensity [16]: 0
- SPOT intensity [17]: 0
- SPOT intensity [18]: 0
- SPOT intensity [19]: 0
- SPOT intensity [20]: 1
- SPOT intensity [21]: 262
- SPOT intensity [22]: 1
- SPOT intensity [23]: 0
- SPOT intensity [24]: 0
- SPOT intensity [25]: 0
- SPOT intensity [26]: 0
- SPOT intensity [27]: 0

Binder: VDFTLPPPPPPPGLD
- SPOT intensity [1]: 367
- SPOT intensity [2]: 0
- SPOT intensity [3]: 143
- SPOT intensity [4]: 0
- SPOT intensity [5]: 1
- SPOT intensity [6]: 0
- SPOT intensity [7]: 0
- SPOT intensity [8]: 2
- SPOT intensity [9]: 0
- SPOT intensity [10]: 0
- SPOT intensity [11]: 0
- SPOT intensity [12]: 0
- SPOT intensity [13]: 0
- SPOT intensity [14]: 1
- SPOT intensity [15]: 0
- SPOT intensity [16]: 0
- SPOT intensity [17]: 0
- SPOT intensity [18]: 0
- SPOT intensity [19]: 2
- SPOT intensity [20]: 0
- SPOT intensity [21]: 491
- SPOT intensity [22]: 0
- SPOT intensity [23]: 0
- SPOT intensity [24]: 0
- SPOT intensity [25]: 0
- SPOT intensity [26]: 1
- SPOT intensity [27]: 0

Binder: FTLPPPPPPPGLDEL
- SPOT intensity [1]: 234
- SPOT intensity [2]: 0
- SPOT intensity [3]: 116
- SPOT intensity [4]: 0
- SPOT intensity [5]: 7
- SPOT intensity [6]: 0
- SPOT intensity [7]: 2
- SPOT intensity [8]: 0
- SPOT intensity [9]: 0
- SPOT intensity [10]: 0
- SPOT intensity [11]: 0
- SPOT intensity [12]: 0
- SPOT intensity [13]: 0
- SPOT intensity [14]: 0
- SPOT intensity [15]: 0
- SPOT intensity [16]: 0
- SPOT intensity [17]: 0
- SPOT intensity [18]: 0
- SPOT intensity [19]: 13
- SPOT intensity [20]: 0
- SPOT intensity [21]: 455
- SPOT intensity [22]: 1
- SPOT intensity [23]: 0
- SPOT intensity [24]: 0
- SPOT intensity [25]: 0
- SPOT intensity [26]: 0
- SPOT intensity [27]: 0
